Measured values from PMC11600153, “Mg^2+-Ion Dependence Revealed for a BAHD 13-O-β-Aminoacyltransferase from Taxus Plants” (JACS Au, 2024).

Substrate: CC(C)=C[C@H](N)[C@@H](O)C(=O)O
Test: LC/ESI-MS/MS product quantification, Michaelis-Menten fit
Format: biochemical, Brevibacillus parabrevis
Conditions: 7 varied 0.05-1 mM, CoA 1 mM, ATP 1 mM, MgCl2, phosphate pH 8, 31 °C

B1: PheAT (truncated TycA module of tyrocidine synthase) (Brevibacillus parabrevis) (protein)
chain: MLANQANLIDNKRELEQHALVPYAQGKSIHQLFEEQAEAFPDRVAIVFENRRLSYQELNRKANQLARALLEKGVQTDSIVGVMMEKSIENVIAILAVLKAGGAYVPIDIEYPRDRIQYILQDSQTKIVLTQKSVSQLVHDVGYSGEVVVLDEEQLDARETANLHQPSKPTDLAYVIYTSGTTGKPKGTMLEHKGIANLQSFFQNSFGVTEQDRIGLFASMSFDASVWEMFMALLSGASLYILSKQTIHDFAAFEHYLSENELTIITLPPTYLTHLTPERITSLRIMITAGSASSAPLVNKWKDKLRYINAYGPTETSICATIWEAPSNQLSVQSVPIGKPIQNTHIYIVNEDLQLLPTGSEGELCIGGVGLARGYWNRPDLTAEKFVDNPFVPGEKMYRTGDLAKWLTDGTIEFLGRIDHQVKIRGHRIELGEIESVLLAHEHITEAVVIAREDQHAGQYLCAYYISQQEATPAQLRDYAAQKLPAYMLPSYFVKLDKMPLTPNDKIDRKALPEPDLTANQSQAAYHPPRTETESILVSIWQNVLGIEKIGIRDNFYSLGGDSIQAIQVVARLHSYQLKLETKDLLNYPTIEQVALFVKSTTRKSD
notes: truncated TycA (PheAT)
Km: 112 µM | kcat: 0.0083 s⁻¹
